# Reference: the RNAGym collection of RNA variant scans (doi:10.1073/pnas.2313332121)
# B1: TPR t1 (parent)
# chain: GACCAAUCUGCCCUCAGAGCUCGAGAACAUCUUCGGAUGCAGAGGAGGCAGGCUUCGGUGGCGCGAUAGCGCCAACGUCCUCAACCUCCAAUGCAUCCCACCACAUGAUGAUGCCUGAAGAGCCUUGGUUUUUUG
# Variants of: B1
# Assay: polymerase ribozyme fitness, log enrichment relative to wild type (log ratio); higher = more active; in vitro selection for triplet polymerase activity
# Outline: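 Input and output libraries were sequenced on Illumina after a single in vitro selection round, run in triplicate on PCR-built, transcribed mutant libraries of each subunit of a heterodimeric triplet polymerase ribozyme. Selection annealed libraries to a biotinylated primer, the partner subunit and triplets, incubated them frozen at −7 °C, then gel-excised extended constructs for streptavidin-bead capture and RT-PCR. Genotypes with ≥10 input reads and ≥1 read per output were kept. Fitness is the logarithm, taken in base 2, of genotype enrichment divided by wild-type enrichment, using inverse-variance-weighted replicate averages.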
row,Variant,polymerase ribozyme fitness (log ratio)
1,GACCAAUCUGCCCUCAGAGCUCGAGAACAUCUUCGGAUGCAGAGGAGGCAGGCUUCGGUGGCGCGAUAGCGCCAACGUCCUCAACCUGCAAUGCAUCCCACCACAUUAUGCUGCCUGAAGUGCCAUGGUUUUUUG,-3.56
2,GACCAAUCUGCCCUCAGAGCUCGAGAACAUCUUCGGAUGCAGAGGAGGCAGGCUUCGGUGGCGCGAUAGCGCCAACGUCCUCAACCUUCAAUGCAUCCCACCACAUGAUGAUGCAUGAAGAGCCUUGGUUUUUUG,-0.441
3,GACCAAUCUGCCCUCAGAGCUCGAGAACAUCUUCGGAUGCAGAGGAGGCAGGCUUCGGUGGCGCGAUAGCGCCAACGUCCUCAACCUUCAAUGCAUCCCACCACAUGAUGAUGCCUGAAUAGCCUGGGUUUUUUG,-3.22
4,GACCAAUCUGCCCUCAGAGCUCGAGAACAUCUUCGGAUGCAGAGGAGGCAGGCUUCGGUGGCGCGAUAGCGCCAACGUCCUCAACCUUCAAUGUAUCCCACCACAUGAUGAUGCCUGAAGAGCCUUGGUUUUUUG,-1.32
5,GACCAAUCUGCCCUCAGAGCUCGAGAACAUCUUCGGAUGCAGAGGAGGCAGGCUUCGGUGGCGCGAUAGCGCCAACGUCCUCAACCUGCAAUGCAUCCCACUACAUGAUGAUGCCUUAAGAGCCUUGGUUUUUUG,-6.89
6,GACCAAUCUGCCCUCAGAGCUCGAGAACAUCUUCGGAUGCAGAGGAGGCAGGCUUCGGUGGCGCGAUAGCGCCAACGUCCUCAACCUCAAAUACAUCCCACCACAUGAUGAUGCCUGAAAAGCCUUGGUUUUUUG,-1.81
7,GACCAAUCUGCCCUCAGAGCUCGAGAACAUCUUCGGAUGCAGAGGAGGCAGGCUUCGGUGGCGCGAUAGCGCCAACGUCCUCAACCUCAAAUGCAUCCCACCACAUGAUGAUGCCUGAAGAGCCUUGCUUUUUUG,-4.25
8,GACCAAUCUGCCCUCAGAGCUCGAGAACAUCUUCGGAUGCAGAGGAGGCAGGCUUCGGUGGCGCGAUAGCGCCAACGUCCUCAACCUGCAAUGCAUCCCACCACAUGAUGAUGCCUGAAACGCCUUGGUUUUUUU,-0.939
9,GACCAAUCUGCCCUCAGAGCUCGAGAACAUCUUCGGAUGCAGAGGAGGCAGGCUUCGGUGGCGCGAUAGCGCCAACGUCCUCAACCUCAAAUGCAUCCCACCACAUGAUGAUGCCUGAAGGGCCUUGGUUUUUUG,1.44
10,GACCAAUCUGCCCUCAGAGCUCGAGAACAUCUUCGGAUGCAGAGGAGGCAGGCUUCGGUGGCGCGAUAGCGCCAACGUCCUCAACCUCAAAUGCAUCCCACCACAUGAUGAUCCCUGAAGAGCCUUGGUUUUUUG,-1.8
11,GACCAAUCUGCCCUCAGAGCUCGAGAACAUCUUCGGAUGCAGAGGAGGCAGGCUUCGGUGGCGCGAUAGCGCCAACGUCCUCAACCUCAAAUACAUCCCACCACAUGAUGAUGCCUGAAGAGCCUUGGUUUUUUG,-2.99
12,GACCAAUCUGCCCUCAGAGCUCGAGAACAUCUUCGGAUGCAGAGGAGGCAGGCUUCGGUGGCGCGAUAGCGCCAACGUCCUCAACCUGCAAUGCAUCCCACCACAUGAUGAUGCCUGAAGAGCCUUGCUUUUUUG,-3.43
13,GACCAAUCUGCCCUCAGAGCUCGAGAACAUCUUCGGAUGCAGAGGAGGCAGGCUUCGGUGGCGCGAUAGCGCCAACGUCCUCAACCUCAAAUGCAUCCCACCACAUGAUGAUGUCUGAAGAGCCUUGGUUUUUUG,-0.329
14,GACCAAUCUGCCCUCAGAGCUCGAGAACAUCUUCGGAUGCAGAGGAGGCAGGCUUCGGUGGCGCGAUAGCGCCAACGUCCUCAACCUCAAAUGCAUCCCACCACAUGAUGAUGGCUGAAGAGCCUUGGUUUUUUG,-2.82
15,GACCAAUCUGCCCUCAGAGCUCGAGAACAUCUUCGGAUGCAGAGGAGGCAGGCUUCGGUGGCGCGAUAGCGCCAACGUCCUCAACCUUCAAUGCAUCCCACCACAUGAUGAUGCCUGAGGAGCCUUGGUUUUUUG,1.04
16,GACCAAUCUGCCCUCAGAGCUCGAGAACAUCUUCGGAUGCAGAGGAGGCAGGCUUCGGUGGCGCGAUAGCGCCAACGUCCUCAACCUCAAAUGCAUCCCACCACAUGAUGUUACCUGAAGAGCCUUGGUUUUUUG,-5.69
17,GACCAAUCUGCCCUCAGAGCUCGAGAACAUCUUCGGAUGCAGAGGAGGCAGGCUUCGGUGGCGCGAUAGCGCCAACGUCCUCAACCUUCAAUGCAUCCCACCACAUGAUGAUGCCCGAACAGCCUUGGUUUUUUG,-0.613
18,GACCAAUCUGCCCUCAGAGCUCGAGAACAUCUUCGGAUGCAGAGGAGGCAGGCUUCGGUGGCGCGAUAGCGCCAACGUCCUCAACCUUCAAUGCAUCCCACCAUAUGAUGAUGCCUGAAGAGCCUUGGUUUUUUG,0.689
19,GACCAAUCUGCCCUCAGAGCUCGAGAACAUCUUCGGAUGCAGAGGAGGCAGGCUUCGGUGGCGCGAUAGCGCCAACGUCCUCAACCUGCAAUGCAUCCCACCACAUGAUCAUGCCUGAAGAGCCUUGGUUUUUUG,-5.26
20,GACCAAUCUGCCCUCAGAGCUCGAGAACAUCUUCGGAUGCAGAGGAGGCAGGCUUCGGUGGCGCGAUAGCGCCAACGUCCUCAACCUGCAAUGCAUCCCACCACAUGAUGAUGCCUGAAGAGCCUUGGUUCUUUG,-0.249
21,GACCAAUCUGCCCUCAGAGCUCGAGAACAUCUUCGGAUGCAGAGGAGGCAGGCUUCGGUGGCGCGAUAGCGCCAACGUCCUCAACCUUCAAUGCAUCCCUCCACAUGAUGAUGCCUGAAAAGCCUUGGUUUUUUG,-0.615

row,Variant,polymerase ribozyme fitness (log ratio)
1,GACCAAUCUGCCCUCAGAGCUCGAGAACAUCUUCGGAUGCAGAGGAGGCAGGCUUCGGUGGCGCGAUAGCGCCAACGUCCUCAACCUGCAAUGAAUCCCACCACAUGAUGCUGCCUGAAGAGCCUUGGUUUUAUG,-3.52
2,GACCAAUCUGCCCUCAGAGCUCGAGAACAUCUUCGGAUGCAGAGGAGGCAGGCUUCGGUGGCGCGAUAGCGCCAACGUCCUCAACCUUCAAUGCAUCCCACCACGUGAUGAUGCCUGAAGAGUCUUGGUUUUUUG,-1.46
3,GACCAAUCUGCCCUCAGAGCUCGAGAACAUCUUCGGAUGCAGAGGAGGCAGGCUUCGGUGGCGCGAUAGCGCCAACGUCCUCAACCUCAAAUGCAUCCCACCACAUGAUGAUGCCUGAAGAGCAUUGGUUUUUUG,0.985
4,GACCAAUCUGCCCUCAGAGCUCGAGAACAUCUUCGGAUGCAGAGGAGGCAGGCUUCGGUGGCGCGAUAGCGCCAACGUCCUCAACCUACAAUGCAUCCCACCACAAGAUGAUGCCUGAAGAGCCUUGGUUUUUUG,-0.303
5,GACCAAUCUGCCCUCAGAGCUCGAGAACAUCUUCGGAUGCAGAGGAGGCAGGCUUCGGUGGCGCGAUAGCGCCAACGUCCUCAACCUGCAAUGCAUCCCACCACAUGAUGAUGCCUGAAGAGCCUUGGUUUUUUG,-0.581
6,GACCAAUCUGCCCUCAGAGCUCGAGAACAUCUUCGGAUGCAGAGGAGGCAGGCUUCGGUGGCGCGAUAGCGCCAACGUCCUCAACCUUCAAUGCAUCCCACCACAUGAUGAUGCCUGAAGAGCCUUGGUUUUUUG,-0.0459
7,GACCAAUCUGCCCUCAGAGCUCGAGAACAUCUUCGGAUGCAGAGGAGGCAGGCUUCGGUGGCGCGAUAGCGCCAACGUCCUCAACCUACAAUGCAUCCCACCACAAGAAGAUGCCUGAAGAGCCUAGGUUGUUUG,-5.92
8,GACCAAUCUGCCCUCAGAGCUCGAGAACAUCUUCGGAUGCAGAGGAGGCAGGCUUCGGUGGCGCGAUAGCGCCAACGUCCUCAACCUGCAAUGCAUCCCACCACAUAAUGAUGCCUGAAGAGCCUUGGUCUUUUG,-6.86
9,GACCAAUCUGCCCUCAGAGCUCGAGAACAUCUUCGGAUGCAGAGGAGGCAGGCUUCGGUGGCGCGAUAGCGCCAACGUCCUCAACCUCAAAUGAAUCCCACCAUAUGAUAAUGCCUGAAGAGCCUUGGUUUUUUG,-4.47
10,GACCAAUCUGCCCUCAGAGCUCGAGAACAUCUUCGGAUGCAGAGGAGGCAGGCUUCGGUGGCGCGAUAGCGCCAACGUCCUCAACCUUCAAUGCAUCCCACCACAUGAUGAUGCCUGAAUAGCCUUGGUUUUUUG,0.291
11,GACCAAUCUGCCCUCAGAGCUCGAGAACAUCUUCGGAUGCAGAGGAGGCAGGCUUCGGUGGCGCGAUAGCGCCAACGUCCUCAACCUUCAAUGCAUCCCACCACAUGAUGAUGCCUGAACAGCCUUGGUUUUUUG,0.853
12,GACCAAUCUGCCCUCAGAGCUCGAGAACAUCUUCGGAUGCAGAGGAGGCAGGCUUCGGUGGCGCGAUAGCGCCAACGUCCUCAACCUCAAAUGCAUCCCACCACAUGAUGAUGCCUGAAUAGCCUUGGUUUUUUG,-1.79
13,GACCAAUCUGCCCUCAGAGCUCGAGAACAUCUUCGGAUGCAGAGGAGGCAGGCUUCGGUGGCGCGAUAGCGCCAACGUCCUCAACCUGCAAUGCAUCCCACCACAGGAUGAUGCCUGAAGAGCCUUGGUUUUUUG,-2.4
14,GACCAAUCUGCCCUCAGAGCUCGAGAACAUCUUCGGAUGCAGAGGAGGCAGGCUUCGGUGGCGCGAUAGCGCCAACGUCCUCAACCUCAAAUGCAUCCCACCACAUGAUGAUGCCUUAAGAGCCUUGGUUUUUUG,-4.53
15,GACCAAUCUGCCCUCAGAGCUCGAGAACAUCUUCGGAUGCAGAGGAGGCAGGCUUCGGUGGCGCGAUAGCGCCAACGUCCUCAACCUCAAAUGCAUCCCACCACAUGAUGAUGCCUCAAGAGCCUUGGUUUUUUG,-4.96
16,GACCAAUCUGCCCUCAGAGCUCGAGAACAUCUUCGGAUGCAGAGGAGGCAGGCUUCGGUGGCGCGAUAGCGCCAACGUCCUCAACCUCAAAUGCAUCCCACCACAUGAUGAUGCCUAAAGAGCCUUGGUUUUUUG,-1.73
17,GACCAAUCUGCCCUCAGAGCUCGAGAACAUCUUCGGAUGCAGAGGAGGCAGGCUUCGGUGGCGCGAUAGCGCCAACGUCCUCAACCUCAAAUGCAUCCCAACACAUGAUGAUGCCUAAAGAGCCUUGGUUUUUUG,-5
18,GACCAAUCUGCCCUCAGAGCUCGAGAACAUCUUCGGAUGCAGAGGAGGCAGGCUUCGGUGGCGCGAUAGCGCCAACGUCCUCAACCUGCAAUGCAUCCCACCACAUGAUGAUGCCUCAAGAGCCUUGGUUUUUUG,-4.47
19,GACCAAUCUGCCCUCAGAGCUCGAGAACAUCUUCGGAUGCAGAGGAGGCAGGCUUCGGUGGCGCGAUAGCGCCAACGUCCUCAACCUUCAAUGCAUCCCACCACAUGAUGAUGCCUGAAAAGCCUUGAUUUUUUG,-1.29
20,GACCAAUCUGCCCUCAGAGCUCGAGAACAUCUUCGGAUGCAGAGGAGGCAGGCUUCGGUGGCGCGAUAGCGCCAACGUCCUCAACCUUAAAUGCAUCCCACCACAUGAUGAUGCCUGAAGUACCUUGGUUUUUUG,-1.15
21,GACCAAUCUGCCCUCAGAGCUCGAGAACAUCUUCGGAUGCAGAGGAGGCAGGCUUCGGUGGCGCGAUAGCGCCAACGUCCUCAACCUACAAUGCAGCCCACCACAUGAUGAUGCCUGAAGAGCCUUGGUUUUUUG,-0.386
